In patent publication US7507790 (UNIVERSITY OF SUSSEX, dated 2009):

Target: T1, SAF-p2a
T1 construct: also called self-assembling peptide; straight
T1 peptide: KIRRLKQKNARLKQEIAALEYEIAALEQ
Assay: co-assembly into fibres, seen by TEM (each peptide at 100 µM, 22° C. overnight)
Procedure: All samples of fibres were prepared with SAF-p1 and SAF-p2a (each at 100 μM concentration) with the designated amounts of FiSh peptides, and incubated at 22° C. overnight following the techniques described in Pandya et al., 2000 (supra).

binding result: binds
B1: SAF-p1 (peptide)
peptide: KIAALKQKIASLKQEIDALEYENDALEQ
notes: Synthetic de novo leucine-zipper peptide made by Fmoc solid-phase synthesis; also called self-assembling peptide; straight
